Data published in patent US11033507B2, “Method of synthesis of silica vesicles and use thereof” (THE UNIVERSITY OF QUEENSLAND, priority 2013, dated 2021).

Key:
SCC25 cells = assay: MTT cell toxicity, SCC25; type: cell-based, human
Description: SCC25 cells were seeded in a 96-well plate at a density of 2×10^4 cells per well and cultured in 5% CO2 at 37° C. for 24 h. Then, free RNase A, SVs, RNase A loaded SVs and corresponding denatured samples were added to the cells in DMEM medium at an RNase A dosage of 4-16 μg/ml, and the cells were incubated in 5% CO2 at 37° C. for 24 and 72 h. Subsequently, MTT reagent (10 μl/well volume from 5 mg/mI solution in PBS) was added to each well, shaken for 10 seconds and then incubated at 37° C. for 4 h. The precipitants were collected following centrifugation for the above cell toxicity experiments after the removal of the supernatant. Then DMSO (100 μl) was added to each well to dissolve the formazan crystals and the optical density (OD) was recorded at 570 nm using a microplate reader (SpectraMax M5, Bio-Strategy, Ltd). Cells incubated in the absence of SVs and RNase A were used as the control. All the experiments were performed in triplicate for each group.
Another series of control groups was prepared after heat and acid denaturation of RNase A, including both free RNase A and RNase A loaded SVs. In the denaturation process, 50 μl of HCl (0.01M, pH 2.0) solution was added in to 1 mg of free RNase A or 6-9 mg of SVs (loaded with 1 mg RNase A). The mixtures were incubated at 65° C. for 40 min, cooled and centrifuged. NaOH (0.01M) solution was added dropwise into the mixtures until the pH reached ˜7, indicated by precise pH paper and used as a denatured RNase A group in the present experiment.
The stability and activity of RNase A loaded in hydrophobic modified SV was further investigated with acid and heat treatment. In a treatment procedure, 50 μl 0.01 M HCl (pH 2) was added to ˜1 mg RNase A loaded in SV. The mixture was kept in 65° C. for 40 min, then neutralized with 0.01 M NaOH solution (pH 12) until the pH reached 7. The final RNase A concentration was then diluted to 0.5 mg/ml. Free RNase A was also treated accordingly as a control group. […]

HCT116 cells = assay: Cell viability after acid and heat treatment, HCT116; type: cell-based; conditions: 24 to 72 h; samples acid and heat treated
RNase A = RNase A (Bos taurus, UniProt P61823); assay: Thermal unfolding of RNase A by differential scanning calorimetry; type: physicochemical; conditions: 10 mM PBS, RNase A 0.5 mg/ml, heating rate 60° C./h
Description: The thermal unfolding of RNase A was measured by differential scanning calorimetry (DSC) in the range of 10−130° C. The DSC was carried out using a VP DSC microcalorimeter (MicroCal Company, USA) with a heating rate of 60° C./h. In a typical procedure, the RNase A/SV was suspended in 10 mM PBS solution with the RNase A concentration of 0.5 mg/ml. A reference suspension was also prepared using only SV the same concentration. The reference and sample suspension were injected in the corresponding cells for DSC measurements. The DSC curve of free RNase A was also obtained.

B1: free RNase A: ribonuclease A, model therapeutical protein (protein, UniProt P61823 27-150, looked up)
Ribonuclease pancreatic: KETAAAKFERQHMDSSTSAASSSNYCNQMMKSRNLTKDRCKPVNTFVHESLADVQAVCSQKNVACKNGQTNCYQSYSTMSITDCRETGSSKYPNCAYKTTQANKHIIVACEGNPYVPVHFDASV
Which “cellular toxicity / inhibition of SCC25 cells” value (SCC25 cells; 24 to 72 h, samples acid and heat treated) does the source give for B1 here?
Its value is “no inhibition”.

And the “cytotoxicity to SCC25 cells” value (SCC25 cells; free protein after denaturation)?
Its value is “no cytotoxicity”.

What about the “cytotoxicity to SCC25 cells” value (SCC25 cells; free protein, not denatured) of the same molecule?
Its value is “no cytotoxicity”.

What about the “cellular toxicity / inhibition of HCT116 cells” value (HCT116 cells) of the same molecule?
Its value is “no inhibition”.

What about the “midpoint temperature for the RNase A thermal unfolding (Tm)” value (RNase A) of the same molecule?
The value was 63.6 °C.
